Data set [1] addresses His-tagged Trichoplax adhaerens OGA pHAT domain (TapHAT) (Trichoplax adhaerens). Put plainly: SEC; analytical; Superdex 200 Increase 10/300 GL; 500 μL of His-tagged pHAT at 1 mg/mL; 25 mM Tris pH 7.5, 150 mM NaCl, 0.5 mM TCEP; LMW calibration standards. In general terms: SEC sorts molecules by how far they enter the pores of the column.
The next data set deals with T1, OgHAT (OgAT) (Oceanicola granulosus, UniProt Q2CEE2).
T1 construct: gene OG2516_04134; amine-biotinylated, captured on streptavidin CM5 chip; not known to form dimers
Put plainly: SPR (Biacore […]), […] equilibrium-binding fit. On the technique in general: SPR reads the build-up and loss of mass on a sensor chip optically.

Data set [2] deals with the molecule itself. Put plainly: SEC; analytical; Superdex 200 Increase 10/300 GL; 500 μL of His-tagged pHAT at 1 mg/mL; 25 mM Tris pH 7.5, 150 mM NaCl, 0.5 mM TCEP; LMW calibration standards.
Data set [3] concerns the molecule itself. The data set is described as follows: cryo-EM structure; 0.5 mg/mL hOGA or TaOGA vitrified at 4 °C; Titan Krios 300 kV; CryoSPARC.

T1 sequence (Q2CEE2 whole entry): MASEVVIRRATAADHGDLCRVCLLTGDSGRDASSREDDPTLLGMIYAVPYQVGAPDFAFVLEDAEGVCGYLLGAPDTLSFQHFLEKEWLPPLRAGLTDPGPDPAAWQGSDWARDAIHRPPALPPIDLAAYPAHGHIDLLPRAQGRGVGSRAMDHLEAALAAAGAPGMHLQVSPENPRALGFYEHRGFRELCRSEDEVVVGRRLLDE

In the case of “His-tagged Trichoplax adhaerens OGA pHAT domain (TapHAT) (domain or fragment)”, in data set [1], the stoichiometry N – broadly, the number of molecules, sites or subunits per partner or assembly – was 2.

In the case of `CC(=O)SCCNC(=O)CCNC(=O)[C@H](O)C(C)(C)COP(=O)(O)OP(=O)(O)OC[C@H]1O[C@@H](n2cnc3c(N)ncnc32)[C@H](O)[C@@H]1OP(=O)(O)O` [acetyl-CoA], the Kd – broadly, a measure of binding affinity in units of concentration – on OgHAT (OgAT) stood at 5 mM.

B1: His-tagged human OGA pHAT domain (hpHAT) (domain or fragment, UniProt O60502 710-916, looked up)
chain: PTSKVYTIRPYFPKDEASVYKICREMYDDGVGLPFQSQPDLIGDKLVGGLLSLSLDYCFVLEDEDGICGYALGTVDVTPFIKKCKISWIPFMQEKYTKPNGDKELSEAEKIMLSFHEEQEVLPETFLANFPSLIKMDIHKKVTDPSVAKSMMACLLSSLKANGSRGAFCEVRPDDKRILEFYSKLGCFEIAKMEGFPKDVVILGRSL
notes: pHAT domain of human O-GlcNAcase (OGA), residues 710-916; non-cleavable 6xHis-tag; also called human pHAT; isolated human pHAT domain; source: E. coli BL21(DE3) pLysS, purified (NiNTA, Superdex 75)
In the case of B1, the “stoichiometry N” value in data set [2] came to 2.

B2: Trichoplax adhaerens O-GlcNAcase (TaOGA), residues 5-723 (enzyme, UniProt A0A0D5X2Y8 5-723, looked up)
chain: KFLSGVVEGFYGKPWSFEQRKTLFSNMAKWGLNTYMYGPKDDEKHRAAWKQAYSKREGDSLRALIRAAEESGILFIYAISPGVDITYSSNRDMKFLKDKLDQIRNFGCNSFAIFFDDIDTVMCLQDQEEFESFAAAQVEVTNEIYKYLGMPANFLFCPTEYCAARADPNVKESKYLVTVGTGLHSDIHIMWTGPKVVSNKISVESILELQTVLRRKPVIWDNIHANDYEQGRLNLGPYDCRPAELMESLNGIFTNPNCEFELNYVPIRTFSLWCQSKRTRFNYDVEKALEQSIREWTEEFCIPRLPDGYLLEADTSDTNVNEYMDDEMQSDSRPISPANSMETDKDELTVKDIRLLVELFYLPQKHGKTANDLLAQAKWLKSNFRIAALSRKPNDTSEGSNLDEHNTDYIAAKEWDKRFSKFRSICQIIHQFGDRLMTCRNRVLLYEVYNYVADLCGILYHLISRIHSLANPEKLEKRSDSEQSSFRYGGFVGDIHRLIVSTDEYEESTLKNSDAYVIRPFMPSDEETLYDLCLKSCIENSNGDEIYKREPRIIGDRDLGAYIYLHPEYIYVLEDDRDKICGYLCGALDSKQFYERYESEWLTQIRDRHPQPENDIASWTPEEIVANSFYNFTPPTDVSVLYLSHLEARFDSSVPEKVIKRIIRFILEQLKAKGSYGASMLIDSWRTNLRRIFTSMGFVDLQEYSWMSEQKCMIAIKLM
notes: TaOGA (TaOGA54), Trichoplax adhaerens, residues 5-723; the results call it full-length; also called TaOGA54; full-length TaOGA; source: E. coli BL21(DE3) pLysS, purified (Ni-NTA, PreScission cleavage, Superdex 200); not shown: His6, N-terminal, cleaved
Take B2: the binding result in data set [3] is reported as “binds”.
